Results taken from article doi:10.1101/2023.06.06.543969 (2023).
Substitutions are numbered along the chain they refer to. In names and notes the source's numbering stands. Read-outs that look alike come from different tables or passages of the source.

Experiments:
Test in all cases: BLI
[1] = biological target: His6-tagged SARS-CoV-2 receptor-binding domain (SARS-CoV-2, UniProt P0DTC2)
[2] = biological target: T1, biotinylated αTSR domain of P. falciparum circumsporozoite protein (P. falciparum, biotinylated)
T1 chain: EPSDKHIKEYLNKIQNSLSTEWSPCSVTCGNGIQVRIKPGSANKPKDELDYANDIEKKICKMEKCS

[3] = biological target: T2, influenza hemagglutinin (HA) from H1N1 A/California/07/2009 (influenza A virus H1N1 …)
[4] = biological target: His-tagged HIV Env MPER peptide (HIV)
[5] = biological target: HCV (isolate H77) E2 domain (HCV (isolate H77))
[6] = biological target: T2, influenza hemagglutinin (HA) from H1N1 …; remark: listed apart in the source
[7] = biological target: T3, biotinylated SARS-CoV-2 fusion peptide (SARS-CoV-2, biotin on the N-terminus)
T3 peptide: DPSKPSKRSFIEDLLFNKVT

B1: GAR12 Fab (WT) (Fab, V domains shown)
VH: EVQLVQSGGGLVQPGGSLRLSCAASGFTFSSYAMSWVRQAPGKGLEWVLSISGSGGSTYYADSVKGRFTISIDNSKKTVYLQMNSLRAEDTAVYYCAKSGEQQLVQAEYFHHWGQGTLVTVSS
VL: DIQMTQSPSTLSASVGDRVTITCRASQSIGRWLAWYQQKPGKAPKLLIYDASSLESGVPSRFSGSGFGTEFTLTISSLQPDDFATYYCQQCDSLLTFGGGTKLEIK
- Kd [1]: 3.5 nM

B2: GAR12 Fab VL D50K (Fab, V domains shown)
VH: B1 VH
VL: B1 VL with D50K
- Kd [1]: 153 nM

B3: Fab234 (WT) (Fab, V domains shown)
VH: EVQLVESGGGLVKPGGSLRLSCAASGFNFSTHIMNWVRQAPGKGLEWVSSISSSGTYIYYADSMKGRFTISRDNPKNSLYLQMNSLRAEDTAVYYCARARGFIQFHYYMDVWGKGTTVAVSS
VL: SYVLTQPPSVSVAPGKTARITCGGNNIGSKSVHWHQQRPGQAPVLVVYDDKIRPSGIPERFSGSNSGNTATLIISRVEAGDEADYYCQVWHSSSDPVVFGGGTKLTVL
- Kd [2]: 0.2 nM

B4: 5J8 Fab (WT) (Fab, V domains shown)
VH: EVQLVESGPGLVKPSDILSLTCAVSGYSISSNYYWGWIRQPPGKGLEWIGSIYHSGSTYYKPSLESRLGISVDTSKNQFSLKLSFVSAADTAVYYCARHVRSGYPDTAYYFDKWGQGTLVTVSS
VL: SYVLTQPPSVSVAPGETARISCGGNNIGTKVLHWYQQTPGQAPVLVVYDDSDRPSGIPERFSGSNSGNTATLTISRVEVGDEADYYCQVWDISTDQAVFGGGTKLTVL
- Kd [3]: 4 nM

B5: 4E10 Fab (WT) (Fab, V domains shown)
VH: QVQLVQSGAEVKRPGSSVTVSCKASGGSFSTYALSWVRQAPGRGLEWMGGVIPLLTITNYAPRFQGRITITADRSTSTAYLELNSLRPEDTAVYYCAREGTTGWGWLGKPIGAFAHWGQGTLVTVSS
VL: EIVLTQSPGTQSLSPGERATLSCRASQSVGNNKLAWYQQRPGQAPRLLIYGASSRPSGVADRFSGSGSGTDFTLTISRLEPEDFAVYYCQQYGQSLSTFGQGTKVEVK
- Kd [4]: 9.1 nM

B6: HC84.26.5D Fab (WT) (Fab, V domains shown)
VH: VQPVQSGAEVKKPGSSVKVSCEASGGTHSNYVITWVRQAPGQGLEWMGGFIPDFRTAMYAQGFQGRVTITADESTSLAYMELTNLRSEDTAVYYCARGPLSRGYYDYWGPGTLVTVSS
VL: YVLTQPPSVSVAPGQTASITCSGDKLGDKYVSWYQQRPGQSPVLVLYQDSKRPSGIPERFSGSNSGNTATLTISGTQAMDEADYYCQAWDSSALVFGGGTKLTVL
- Kd [5]: 0.9 nM

B7: 3E1 Fab (WT) (Fab, V domains shown)
VH: QVQLQESGPGLVKPSETLSLTCSVSGASISSYYWIWIRQPAGKGLEWIGRFYTSGSPNYNPSLRSRVTMSVDTSKNQFSLKLTSVTAADTAVYYCAREEHITFGGVIVRYWGQGTLVTVSP
VL: DIQMTQSPATLSASVGDRVSITCRASQSISSWLAWYQQKPGKAPKLLIYKASSLESGVPSRFSGSGSGSEFTLTISSLQPDDFAIYYCQQYNSYPWTFGQGTKVEIK
- Kd [6]: 6.9 nM

B8: COV44–62 Fab (WT) (Fab, V domains shown)
VH: QMQLMQSGAEVKKPGASVTVSCKASGDTFSDYRIHWVRQAPGQGLEWMGRMNPKSGDTNFAQKFQGRVTMTRDMSINTAYMTLSGLTFDDTALYYCASLLIVGGFDPLDDFEVWGQGTMVTISS
VL: QSALTQPPSASGSPGQSVTISCSGTSSDVGGYNFVSWYQHHPGKAPKILIYEVTKRPSGVPDRFSGSKSGNTASLTVSGLQAEDEADYYCSSYGGTNNLLFGGGTKLTVL
- Kd [7]: 26 nM
